Measured values taken from article PMC3159463.
Read-outs that look alike come from different tables or passages of the source.

What was measured:
[1] = target: pED208 TraM (plasmid pED208 (transfer-derepressed derivative of the Folac plasmid originally isolated from Salmonella typhi)) (UniProt P33788); test: crystal structure
F TraM [2] = target: T1, F TraM (F plasmid, UniProt P10026 1-127); test: SEC-MALLS
T1 sequence: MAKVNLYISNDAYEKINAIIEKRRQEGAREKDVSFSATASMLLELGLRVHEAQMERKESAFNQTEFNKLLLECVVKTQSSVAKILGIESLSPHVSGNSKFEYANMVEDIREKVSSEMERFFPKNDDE

F TraM [3] = target: T1, F TraM; test: SEC-MALLS; remark: listed apart in the source
[4] = target: T2, TraM[F1-55:pED208 56-127] chimera (F plasmid / plasmid pED208 chimera, UniProt P10026 1-55+P33788:56-127, internal_change); test: EMSA
T2 sequence: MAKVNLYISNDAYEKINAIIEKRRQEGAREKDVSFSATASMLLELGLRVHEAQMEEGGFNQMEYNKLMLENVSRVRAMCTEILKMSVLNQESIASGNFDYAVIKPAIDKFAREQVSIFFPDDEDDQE

[5] = target: T3, pED208 TraM N-terminal domain (plasmid pED208, UniProt P33788 2-52); test: EMSA
T3 sequence: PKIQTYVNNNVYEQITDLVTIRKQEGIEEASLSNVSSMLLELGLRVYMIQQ

pED208 TraM = target: T4, pED208 TraM (plasmid pED208 (IncFV, derivative of …, UniProt P33788 1-127)); test: EMSA
T4 sequence: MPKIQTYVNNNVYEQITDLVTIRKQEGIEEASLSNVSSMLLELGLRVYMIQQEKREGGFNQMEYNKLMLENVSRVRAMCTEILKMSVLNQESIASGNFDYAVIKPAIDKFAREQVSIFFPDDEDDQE

“pED208 TraM (from UniProt P33788 1-127) (natural protein)” was tested, and the stoichiometry N [1] was 4.

B1: F sbmAB 75 bp (dsDNA)
DNA 1: TTATATTAGGGGTGCTGCTAGCGGCGCGGTGTGTTTTTTTATAGGATACCGCTAGGGGCGCTGCTAGCGGTGCGT
DNA 2: ACGCACCGCTAGCAGCGCCCCTAGCGGTATCCTATAAAAAAACACACCGCGCCGCTAGCAGCACCCCTAATATAA
B1: binds (F TraM [2]).

B2: F sbmA 30 bp (dsDNA)
DNA 1: GATACCGCTAGGGGCGCTGCTAGCGGTGCG
DNA 2: CGCACCGCTAGCAGCGCCCCTAGCGGTATC
B2: binds (F TraM [3]); binds [4].

B3: pED208 sbmA 24 bp (pED 4site, palindromic) (dsDNA)
DNA 1: AGATTCGAATCTAGATTCGAATCT
DNA 2: AGATTCGAATCTAGATTCGAATCT
B3 was tested, and the binding signal [5] was ~500 fold lower affinity than full-length and the Kd (pED208 TraM) was 4.8 ± 0.7 nM.
